# Assay results as given in patent publication US20220389085A1 (BIONOXX, published 2022).
# B1: A56-01F12 (Ab08) (antibody, V domains shown)
# VH: QVQLVESGGEVKKPGSSVKVSCKASGGSFSTYAISWVRQAPGQGLEWMGRIIPISDIRNYAQKFQGRVTLTADRATSTAYMELSSLRSEDTAVYYCAKGGRLLSTHFDYWGQGTLVTVSS
# VL: QLVLTQPPSVSAAPGQKVTISCSGSSSNIGNNYVSWYQQLPGTAPKLLIYDDDKRPSGIPDRFSGSKSGTSATLGITGLQTGDEADYYCGTWHSGLSAGVVFGGGTKLTVL
# B2: A56-44G01 (Ab55) (antibody, V domains shown)
# VH: QVQLVESGGGVVQPGRSLRLSCAASGFTFSSYAMHWVRQAPGKGLEWVAVISYDGSNKYYADSVKGRFTISRDNSKNTLYLQMNSLRAEDTAVYYCAKDLWGRVGALVGALDLWGQGTMITVSS
# VL: SYELTQGPSLSVSPGQTANIICSGDNLRTKYVSWYQQKPGQSPILVIYQDTRRPSGIPARFSGSNSGNTATLTISGTQAMDEADYYCQAWDSGNYVFGTGTKVTVL
# B3: A56-35G07 (Ab51) (antibody, V domains shown)
# VH: QMQLVQSGAEVRKPGSSVKVSCKASGDTFSSYAVSWVRQAPGLGLEWMGRTIPRLGATSYAQNFQGRVSITADKSTNTVYMELSGLRSEDTAVYYCARYIPLVRGVRQPRDDFEIWGPGTMITVSS
# VL: DIQMTQSPGTLSLSPGERATLSCRASQSVSSSYLAWYQQKPGQAPRLLIYGASSRATGIPDRFSGSGSGTDFTLTISSLEPEDFAVYYCQHRKSWPPGATFGQGTRLEIK
# B4: A56-01A04 (Ab03) (antibody, V domains shown)
# VH: QVQLVESGAEVKKPGSSVKVSCKASGGTFSYRYLHWVRQASGQALEWMGWITPFNGYTNYAQKFQDRVTITRDRSMSTAYMELSSLRSEDTAVYYCVTGLGKTNLDSWGQGTLVTVSS
# VL: DIVMTQTPLSSPVTLGQPASISCRSSQSLVHSNGNTYLSWLQQRPGQPPRLLIYQISKRFSGVPDRFSGSGAGTDFTLKISRVEAEDVGVYYCMQLTQFPLTFGGGTKVEIK
# Biological target: T1, protein A56 of the oncolytic virus OTS-412 (vaccinia virus (OTS-412), UniProt P08714 17-315)
# T1 construct: also called OTS-412-A56; protein A56 variant
# T1 chain: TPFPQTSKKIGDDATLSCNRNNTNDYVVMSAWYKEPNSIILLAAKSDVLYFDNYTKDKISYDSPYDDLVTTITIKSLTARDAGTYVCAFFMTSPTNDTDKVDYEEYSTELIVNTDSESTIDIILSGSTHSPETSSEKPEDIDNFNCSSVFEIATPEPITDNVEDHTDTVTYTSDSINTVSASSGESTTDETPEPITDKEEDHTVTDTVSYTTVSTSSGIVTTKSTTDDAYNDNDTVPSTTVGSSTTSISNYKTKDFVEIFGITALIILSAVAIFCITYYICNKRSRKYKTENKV
# Assay: flow cytometry, A549 cells treated with OTS-412
row,Binder,"binding signal (flow cytometry, %) [%]"
1,B1,≥ 90
2,B2,≥ 90
3,B3,≥ 90
4,B4,≥ 90

# Biological target: T1, protein A56 of the oncolytic virus …
# Assay: flow cytometry, MCF7 cells treated with OTS-412
row,Binder,"binding signal (flow cytometry, %) [%]"
1,B1,≥ 80
2,B2,≥ 80
3,B3,≥ 80
4,B4,≥ 80

# Biological target: T2, protein A56 of the oncolytic virus WOTS-418 (vaccinia virus (WOTS-418, Western …, UniProt Q01218 17-314))
# T2 construct: also called WOTS-418-A56; protein A56 variant
# Assay: flow cytometry, A549 cells treated with WOTS-418
row,Binder,"binding signal (flow cytometry, %) [%]"
1,B1,≥ 90
2,B2,≥ 90
3,B3,≥ 90
4,B4,≥ 90

# Biological target: T2, protein A56 of the oncolytic virus …
# Assay: flow cytometry, MCF7 cells treated with WOTS-418
row,Binder,"binding signal (flow cytometry, %) [%]"
1,B1,≥ 80
2,B2,≥ 80
3,B3,≥ 80
4,B4,≥ 80

# Biological target: T1, protein A56 of the oncolytic virus …
# Assay: flow cytometry, PC3 cells treated with OTS-412 (overlay, FIG. 74)
row,Binder,"binding signal (flow cytometry, %) [%]"
1,B1,≥ 60
2,B2,≥ 60
3,B3,≥ 60
4,B4,≥ 60

# Biological target: T2, protein A56 of the oncolytic virus …
# Assay: flow cytometry, PC3 cells treated with WOTS-418 (overlay, FIG. 75)
row,Binder,"binding signal (flow cytometry, %) [%]"
1,B1,≥ 60
2,B2,≥ 60
3,B3,≥ 60
4,B4,≥ 60
